Positions count from the first letter of the chain named. Names and notes keep the numbering of the source. “Also recorded” adds a separate entry of the source.
Columns and labels:
Type in all cases: cell-based
PTEC = test: Toxicity of pharmacologic agents in PTEC; details: exposure to the IC50 dose for 48-72 hr; data not shown
Text: The inventors have also tested pharmacologic agents that disrupt NPM-Bax at specific steps in the cell death pathway (outlined in FIG. 11). These agents include geronylgeronylacetone (GGA), a potent Hsp70 inducer86, avrainvillamide, and NSC34888437. […] The inventors recently reported that GGA induces Hsp70 in murine PTEC and in the intact murine kidney. Hsp70 markedly reduces NPM-Bax complex formation during ischemic stress by 2 distinct mechanisms: a nucleolar-restricted Hsp70 mutant limits NPM translocation into the cytosol, whereas a cytosol restricted Hsp70 mutant sequesters […].

primary human PTECs = details: PTECs, ATP depletion; versus control peptide
Experimental: Exposure to metabolic inhibitors is an established model of ischemic stress that reduces ATP content to, 10% of baseline values until recovery is initiated.24,26 To achieve ATP depletion, cells were washed three times in glucose-free DMEM (Invitrogen, Carlsbad, CA) followed by incubation in glucose-free DMEM containing sodium cyanide (5 mM) and 2-deoxy-glucose (5 mM) for the indicated times.26
Recovery was initiated by replacing the stress medium described above with complete primary cell culture medium containing glucose and substrates that support the rapid restoration of cell ATP.27
For in vitro testing in primary human PTECs, peptides ([…]) were tested that replicate the Bax domain responsible for binding NPM,34 or two peptides designed to interfere with NPM function were compared with a random nonspecific sequence of the same length (control). Peptides intended to interfere with NPM function overlap key phosphorylation sites located at the NPM amino terminus (peptide 2) or carboxy terminus (peptide 3) detected by mass spectrometry. To improve cell uptake, all peptides contained a cell-penetrating sequence13. For in vivo experiments, a renal-targeting sequence (NLS) was added to enhance renal peptide uptake.35 Peptides were commercially synthesized (Biomatik, Wilmington, DE) J Am Soc Nephrol 30: ccc-ccc, 2018 Nucleophosmin in AKI 3www.jasn.org BASIC RESEARCHas follows: NPM-Bax blocking peptide: Ac-KKKRKV-(bA)-[…]-COOH (SEQ ID NO: 8); peptide 2: AC-PKKKRKV-(bA)-[…]-COOH (SEQ ID NO: 9); and peptide 3: AC-PKKKRKV-(bA)-ESFKK-QEKTPKTPKGPSSVED-IKAK-COOH (SEQ ID NO: 10). A single dose ([…] of the NPM-Bax blocking or control peptide) was administered by tail vein injection immediately after release of the pedicle clamps(0 timepoint) […] in each experimental group. A total of 42 control and 56 experimental animals were studied.
Transient exposure to metabolic inhibitors replicates ischemia in vivo by activating Bax and causing cell death.13,29,36-38 Cell viability was assayed using a modified colorimetric technique (MTTassay).37 The number of surviving cells is expressed as a percentage of viable control cells detected at baseline. Serum BUN and creatinine levels were measured in tail vein blood samples for 7 days after ischemia using QuantiChrom BUN or creatinine assay kits (BioAssay Systems, Hayward, CA) according to the manufacturer's instructions.

[1] = system: primary murine proximal tubule epithelial cells (PTECs); test: Functional bioassays of flag-tagged NPM phosphomimic proteins expressed in PTECs; details: for Postischemia cell survival: 60 minutes ATP depletion, FIG. 5E; for NPM localization in resting cells: absence of ischemic stress, FIG. 5A; for NPM-Bax complex formation: after ATP depletion, FIG. 5C; for NPM and active Bax accumulation in isolated mitochondria: after ischemic stress, FIG. 5D; for NPM oligomeric state: resting cells, native gel, FIG. 5B
Text: The biologic behavior of nucleophosmin (NPM) phosphomimic proteins assessed using functional bioassays performed in primary murine proximal tubule epithelial cells (PTECs) that express flag-tagged wild type (WT), a normal (Nor-M or NrNPM) NPM mimic protein, or a stress (Stre-M, StNPM, or Stress-M) NPM mimic protein that replicates differential NPM phosphorylation. […] EV, empty sgOpti vector; RDU, relative density unit. *P, 0.05 for Nor-M and Stress-M NPM phosphomimics versus control (CTL).
Human NPM cDNA (catalog no. 34553; Addgene, Cambridge, MA) and pCDH lentivector systems (System Biosciences, Mountain View, CA) were used to generate NPM wild-type, “NPM stress mimic” (T86E-S88E-T95E-T234A-S242A), and “NPM normal mimic” (T86A-S88A-T95A-T234E-S242E) lentiviral expression plasmids by PCR-based mutagenesis with a flag tag fused to the 59 open reading frame. PCR products were cloned into pCDH vector BamHI/EcoRI sites. All constructs were confirmed by DNA sequencing before cotransfection with pPACKG1 lentivector packaging plasmids into HEK293NT cells to generate lentipseudoviral particles. The resultant pseudoviruses were harvested and purified, and titers were determined according to the manufacturer's instructions. Cells were exposed to virus (MOT 5-8) diluted in Opti-MEM (Invitrogen). After 6 hours incubation with virus-infected medium, a complete culture medium was substituted for an additional 16-hour incubation period.
To determine the biologic role of differential NPM phosphorylation at these five serine/threonine sites and the contribution to cytotoxicity, two flag-tagged NPM phosphomutant proteins as well as wild-type NPM were generated and introduced into human proximal tubule cells. These two mimic proteins replicated the phosphorylation state of NPM in either its normal or stressed configuration at the five differentially phosphorylated sites identified by mass spectrometry (FIG. 4). Specific bioassays were then used to assess the effect of these five post-translational phosphorylation changes on toxic NPM behaviors, including translocation, deoligomerization, NPM-Bax complex formation, mitochondrial NPM and Bax accumulation, and cell death.
Based on this phospho-proteomic data, 32 site-specific, amino terminal, flag-tagged NPM proteins with differential phosphorylation were generated (see FIG. 4B) and placed in a lentiviral vector ([…] phospho-mimic proteins; ref Wang, Havasi et al. 2011). Both the plasmid sequence and protein expression were confirmed. Serine or threonine residues in each of the NPM phospho-mimics was rendered either nonphosphorylatable (alanine substitution) or phospho-mimetic (glutamic acid substitution) at each of the 5 NPM residues identified by mass spec to be altered by ischemia. These NPM phospho-mimics represent all of the possible combinations of constitutively non-phosphorylated and phosphorylated variants at all of the 5 phosphosites ([…], see table, FIG. 4B). The flag epitope facilitates immunohistochemistry for detecting NPM distribution, NPM oligomerization and immunoprecipitation (IP) for detecting interaction between Bax and each NPM phospho-mimic. To establish a causal link between phosphorylation and NPM-function, a flag-tagged NPM mimic that replicated the NPM phospho-state in healthy PTEC and kidney tissue (#10, “normal NPM mimic”) or replicated NPM phosphorylation in post-ischemic cells and tissue (#11; “stress-NPM mimic”; FIG. 4B) was introduced into primary murine PTEC for further study. Dramatic differences in the biologic behavior of these 2 NPM phospho-mimics were detected. […] Using this phospho-data generate 2 new therapeutic peptides that target either T86, S88 and T95 or T232 and S240 were generated (FIG. 4A) and tested (FIG. 7). Screening the remaining NPM mimic proteins can identify the specific function of all 5 phospho-sites.

[2] = listed as normal NPM-phospho-mimic

O=C(C[n+]1cccc2cc(Cl)ccc21)c1cccc([N+](=O)[O-])c1.[Br-] [NSC34888437]
PTEC morphology and toxicity (PTEC): does not alter PTEC morphology or cause significant toxicity

CC1(C)C=Cc2c(ccc3c2[N+]([O-])=C2C3=C[C@@]34NC(=O)[C@]5(CCCN5C3=O)C[C@H]4C2(C)C)O1 [avrainvillamide]
PTEC morphology and toxicity (PTEC): does not alter PTEC morphology or cause significant toxicity

AC-PKKKRKV-(bA)-ESFKK-QEKTPKTPKGPSSVED-IKAK-COOH (PKKKRKVAESFKKQEKTPKTPKGPSSVEDIKAK; N-acetyl, NLS PKKKRKV-betaAla N-terminal; MOD_RES (8)..(8) Beta-alanine) [peptide #3]
Cell survival after ischemic stress (primary human PTECs): significantly improve cell survival

AC-PKKKRKV-(bA)-TLKMSVQPTVSLGGFEITPPVVLRLK-COOH (PKKKRKVATLKMSVQPTVSLGGFEITPPVVLRLK; N-acetyl, NLS PKKKRKV, beta-alanine linker; MOD_RES (8)..(8) Beta-alanine) [peptide #2]
Cell survival after ischemic stress (primary human PTECs): significantly improve cell survival

B1: normal mimic NPM: flag-tagged NPM phosphomutant T86A-S88A-T95A-T234E-S242E expressed by lentivirus (protein)
chain: MEDSMDMDMSPLRPQNYLFGCELKADKDYHFKVDNDENEHQLSLRTVSLGAGAKDELHIVEAEAMNYEGSPIKVTLATLKMSVQPAVALGGFEIAPPVVLRLKCGSGPVHISGQHLVAVEEDAESEDEEEEDVKLLSISGKRSAPGGGSKVPQKKVKLAADEDDDDDDEEDDDEDDDDDDFDDEEAEEKAPVKKSIRDTPAKNAQKSNQNGKDSKPSSTPRSKGQESFKKQEKEPKTPKGPESVEDIKAKMQASIEKGGSLPKVEAKFINYVKNCFRMTDQEAIQDLWQWRKSL
modifications: left off: small tags and cut ends
notes: flag-tagged NPM phosphomutant T86A-S88A-T95A-T234E-S242E expressed by lentivirus
Postischemia cell survival [1]: significantly reduced cell death; also recorded: improved PTEC survival | NPM localization in resting cells ([1]; listed as normal NPM phosphomimic): accumulated in a nucleolar pattern | NPM localization in resting cells [1, 2]: exclusively localized to nucleoli | NPM-Bax complex formation [1]: decreased NPM-Bax complex formation | NPM-Bax complex formation [1, 2]: minimally complexed with Bax | NPM and active Bax accumulation in isolated mitochondria [1]: decreased | NPM and active Bax accumulation in isolated mitochondria [1, 2]: did not accumulate in isolated mitochondria | NPM oligomeric state [1]: formed large oligomers | NPM oligomeric state [1, 2]: remained in the oligomerized state

B2: stress mimic NPM: flag-tagged NPM phosphomutant T86E-S88E-T95E-T234A-S242A expressed by lentivirus (protein)
chain: B1 chain with A86E, A88E, A95E, E234A, E242A
modifications: left off: small tags and cut ends
notes: flag-tagged NPM phosphomutant T86E-S88E-T95E-T234A-S242A expressed by lentivirus
Postischemia cell survival [1]: significantly lower | Postischemia cell survival ([1]; listed as stress NPM mimic): significantly decreased PTEC survival | NPM localization in resting cells ([1]; listed as NPM stress mimic protein): localized to the cytosol | NPM localization in resting cells ([1]; listed as stress NPM mimic): exclusively localized to the cytosol | NPM-Bax complex formation [1]: substantially greater | NPM-Bax complex formation ([1]; listed as stress NPM mimic): markedly increased NPM-Bax complex formation | NPM and active Bax accumulation in isolated mitochondria [1]: exceeded that observed with wild-type or normal mimic NPM | NPM and active Bax accumulation in isolated mitochondria ([1]; listed as stress NPM mimic): dramatically increased NPM accumulation in isolated mitochondria | NPM oligomeric state [1]: accumulated as small monomers | NPM oligomeric state ([1]; listed as stress NPM mimic): caused marked NPM de-oligomerization

From patent publication US12018058B2, “Compositions and methods for diagnosing and/or treating kidney injury” (Boston Medical Center Corporation, priority 2018, dated 2024)
